Results from article doi:10.1101/2024.12.19.629262 (bioRxiv, 2024).
Values belong to the binder of their own block, whether it stands above or below them.

Columns and labels:
[1] = molecular target: wild-type (untethered) III2IV2 respiratory supercomplex with Cox4-Flag (S. cerevisiae) (UniProt P07256); assay: co-IP
[2] = molecular target: T1, Cor1, subunit of complex III (S. cerevisiae, UniProt P07256 27-457); assay: cryo-EM structure
T1 sequence: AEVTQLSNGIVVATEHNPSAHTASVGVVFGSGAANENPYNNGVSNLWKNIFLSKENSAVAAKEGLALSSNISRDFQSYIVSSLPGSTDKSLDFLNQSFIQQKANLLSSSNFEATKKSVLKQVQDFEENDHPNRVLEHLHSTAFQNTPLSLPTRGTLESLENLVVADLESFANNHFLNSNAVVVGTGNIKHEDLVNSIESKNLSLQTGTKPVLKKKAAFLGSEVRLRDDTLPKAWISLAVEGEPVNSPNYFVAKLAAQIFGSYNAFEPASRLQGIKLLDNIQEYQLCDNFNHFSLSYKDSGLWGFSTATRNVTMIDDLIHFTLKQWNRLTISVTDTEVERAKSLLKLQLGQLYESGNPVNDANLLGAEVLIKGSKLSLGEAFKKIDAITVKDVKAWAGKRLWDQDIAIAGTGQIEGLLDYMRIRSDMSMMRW

fold decrease of co-purified Nde1 (normalised to purified SC) against III2IV1 SC [1]: 2 fold
B1: Nde1, external mitochondrial NADH dehydrogenase (enzyme)
chain: EDKKVILQKVAPTTGVVAKQSFFKRTGKFTLKALLYSALAGTAYVSYSLYREANPSTQVPQSDTFPNGSKRKTLVILGSGWGSVSLLKNLDTTLYNVVVVSPRNYFLFTPLLPSTPVGTIELKSIVEPVRTIARRSHGEVHYYEAEAYDVDPENKTIKVKSSAKNNDYDLDLKYDYLVVGVGAQPNTFGTPGVYEYSSFLKEISDAQEIRLKIMSSIEKAASLSPKDPERARLLSFVVVGGGPTGVEFAAELRDYVDQDLRKWMPELSKEIKVTLVEALPNILNMFDKYLVDYAQDLFKEEKIDLRLKTMVKKVDATTITAKTGDGDIENIPYGVLVWATGNAPREVSKNLMTKLEEQDSRRGLLIDNKLQLLGAKGSIFAIGDCTFHPGLFPTAQVAHQEGEYLAQYFKKAYKIDQLNWKMTHAKDDSEVARLKNQIVKTQSQIEDFKYNHKGALAYIGSDKAIADLAVGEAKYRLAGSFTFLFWKSAYLAMCLSFRNRVLVAMDWAKVYFLGRDSSI

binding result [2]: binds
B2: Cox5a, subunit of complex IV (natural protein)
chain: AQTHALSNAAVMDLQSRWENMPSTEQQDIVSKLSERQKLPWAQLTEPEKQAVWYISYGEWGPRRPVLNKGDSSFIAKGVAAGLLFSVGLFAVVRMAGGQDAKTMNKEWQLKSDEYLKSKNANPWGGYSQVQSK
